Assay results as given in a protein production outcome set (Wang et al. 2014).

Assay: label from the status in PepcDB records

Sequence	protein production
MRSGRPLYWIFLLLAFSLLAVLVYVCVAVIPDLRNHPNARRSLKRVRSTLDPQREQRDASRRLDVADTPENRRQLAETLLARGDYAQAAEHYQGALRGLYRDDPHLMLGLAKAQFGLGQPQQTRQTLDALIAANPSFRSHDGHLLYARAVEGSGDTDAALHEYDTLAQGYPGEEARVRYAQLLQRIARNDQARAVYEQVLRHAAASPKHYQREQRAWVDLARKGLRELDTGA	failed
MSETELRKRQAQFTRELHGDDIGKKTGLSALMSKNNSAQKEAVQKYLRNWDGRTDKDAEERRLEDYNEATHSYYNVVTDFYEYGWGSSFHFSRFYKGESFAASIARHEHYLAYKAGIQRGDLVLDVGCGVGGPAREIARFTGCNVIGLNNNDYQIAKAKYYAKKYNLSDQMDFVKGDFMKMDFEENTFDKVYAIEATCHAPKLEGVYSEIYKVLKPGGTFAVYEWVMTDKYDENNPEHRKIAYEIELGDGIPKMFHVDVARKALKNCGFEVLVSEDLADNDDEIPWYYPLTGEWKYVQNLANLATFFRTSYLGRQFTTAMVTVMEKLGLAPEGSKEVTAALENAAVGLVAGGKSKLFTPMMLFVARKPENAETPSQTSQEATQ	failed
MQSLHGNCLIAYARHKYILTMVNGEYRYFNGGDLVFADASQIRVDKCVENFVFVSRDTLSLFLPMLKEEALNLHAHKKVSSLLVHHCSRDIPVFQEVAQLSQNKNLRYAEMLRKRALIFALLSVFLEDEHFIPLLLNVLQPNMRTRVCTVINNNIAHEWTLARIASELLMSPSLLKKKLREEETSYSQLLTECRMQRALQLIVIHGFSIKRVAVSCGYHSVSYFIYVFRNYYGMTPTEYQERSAQRLSNRDSAASIVAQGNFYGTDRSAEGIRL	failed
MGLASMESWIDLLEWPAMLVTVVAAWCIGSHRPGRRMVGFCCFIASNILWSVWGWHAQAWALIVLQLVLCLMNLRGWRKNKRASRKAPSEKVQGGADATPYHLLTSTSRGQPENPS	failed
MKIGIIGVGKMASAIIKGLKQTPHELIISGSSLERSKEIAEQLALPYAMSHQDLIDQVDLVILGIKPQLFETVLKPLHFKQPIISMAAGISLQRLATFVGQDLPLLRIMPNMNAQILQSSTALTGNALVSQELQARVRDLTDSFGSTFDISEKDFDTFTALAGSSPAYIYLFIEALAKAGVKNGIPKAKALEIVTQTVLASASNLKTSSQSPHDFIDAICSPGGTTIAGLMELERLGLTATVSSAIDKTIDKAKSL	not failed
MELVAGSYEQVLFGFTVQRGPAKSGHQETWTPVADFTHHSHTASLSVLASNSRYVVSGSKDETIHIYDMKRKVEHGALVHHAGTVTCLKFHGNQHLISGAEDGHICIWDVKRWKCLKTFKAHRGHVTFLSIHPSGKLALSVGTDKTLRTWNLIEGRSAFIKNIKENAHIVEWSPSGGKYIVVVQNKVDVYRLGTASVSGTITNGKRISSVTFLSDSVLAVAGDEEVVRIFDCDSLECLCEFRAHENRVKDMVSFEVPDHHVLVTASNDGFIKMWTLPQDKKVPPSLLCEAKTGARLTCLTVWLDRAANGMASLPPAAEPCPDQPKTIEKESGDTVQEETSEPNSEKSDVSGDSKQPTKGNSPVTAKKRKMATMSEKKRKKKMSLTWQIPDFSSLSECPFDGILHVPVRRKYLLP	failed
MIMSVCLPWLARCRRFLIVSLAFAMLLLGIWGTLPFSLSDHGTAIAALEDDRYDGNIFVVYAGNGSLVPPRLNLRESFERKLPVILVYYLDDSKDCKQYAFIVSRMQEFYGRVASIIPVSVDSIPDQKRFRRDEPGYYYSGGVPQTVILDKSGKKIFDAQGALKFEVVDDVLRDLFDLLPRSESMELKQRTYNEFNSELVD	failed
MKTRINYAKASPEAFKAVMALENYVQSSGLEHRFIHLIKLRASIINGCAFCVDMHVKESRHDGLSEQWINLMSVWRESPVYTEQERALLGWVDAVTKIAETGAPDDAFETLRAHFSDEEIVKITVAIGAINTWNRIAVGFRSQHPVEAAAKAA	not failed
MSRVAGLSSKKSRWLLQSLLDQQRHSLGTGFESANILLSPKYHLKDKDLRKIHKAARDGDAARVQQLLLGKHCVNDKDKKKRTALHIACAYGHPKVVMALVEGKCEVNATDSEECTSLVKAVQCQEEECATILLENNADPNIVDAQGNSALHYAVYYKNTSLAAKLLDHEVNIEATNKDGFTPFLLAVSENKLKIAKFLLMKNASIHAADNQKRTALMHAVSHDSTNLVRFVLEQGVDLFVKDAFGLTAIDYAADFKYNSKDQQSQELENMEKKYTAAQDSLEYTAAQDSLEHTAAQDSLEHTAAQDGLEYTAAQDSLEHTAAQDSLEHTAAQDSLEHTAAQDSLEYTAAQDSLEYTAAQDSLEYTAAQDSLEHTAAQDSLEYTAAQDSLEHTAAQDSLECTAASNSSRSHALITHVHLSAEPDGGVTSVEEPRRLDDRGDDQPQEAVTAPRTREKEQDMCTVVTGKEDEDESSWDSETNPPSPWGAPEALCAAALDHGDIGSPLTRENGHPRARQSPSVDSEEQDGGSGLNIKEEKTRDHEEWSGDFLMDRTSKESEPAAGDLLQVKDSWSLNDTDPNKGRSGGDPIEESRNATDLNHCKAVYIPPSESANSEIWKGMSSAKARLDNASKGPTVTRF	failed
MPVYLYYGEDTYSLNQKIDHLVNQNVHAEWKDFNYIKLSGNEKNIAAKVFTEVMTLPFGEGNKIVHTDSDHLIGSLSNEDNNQELENQLSRIPASNILLITSNKKPDSRRTVVKTILKYAQQEEFPLVPCWDKKGIVNLIGKYAAIHQVKFTPDVTDYLVEAIGNNTARVDSEFAKLAVYASEKIISLEEIKQLVSNHNTDYQKLTIAMLRNHSNLAIAQVDKLLDSNEHPLKIVATLTSFFRTWLITKAGVEARLSDIKIAEIAEVKNPKRLYYLKDEIKFVGVQKLKNSLTLLLQLETELKSGTNNLISRIIEICMI	failed
MYLPTHFKQENQAELFDLIEHHPLGTLIVMHADGLEVNHIPFELDRLHLPAGILRGHIAKANPLASLLSEPQSAYVIFQAEQHYISPNWYPGKQEHHRVVPTWNYRVVHATGQLSVIEDQKYLRGVLARLTRQHEADQPAPWRLSDAPADFIEQQLEKIMAIEFNIESIIGKFKLSQNRSQADVAGVIAALNELEPQIANSIHKFYPK	failed
MELISIIVPVYNGEIYIGRCLDSILEQTYQNLEIIIIDDGSSDRTGDICEKYFLEDRRIKYFYQENRGQSVARNNGVLRCTGDWIAFLDSDDVYLPYSIEVMYNIQKATNADIVLTSIGNFNNTYNTSINSQYLKEIKLYTLEVALEEMYYGKTYGVSPLAKLYPRSNLLSNPYPEGKIHEDMDTTFKLISCASKIAVCDIVTAVVYFSDNSTTRTKFNERMLYFFEAIQNNIVFINLNFPHNTSLISAVIYNEVFGGIDICGKMIDFKLYDTVDYYRKKYRKYFKTILFNNRISVKEKVKYILFISSIRYFTIVRKIYNLRLSRNGLEHHHHHH	failed
MLDASPATARSPLEKRRPNVCREEQLTLVRLSRPCAQAFIDTIQFWKQGCSGPRWCVGYERRIRYYIIYRHVYATEHQTVFRCCPGWIQWDDEPGCFSSLSSLGTHFSGRECSYQDTRQCLCSQGFHGPHCQYDINECAVDNGGCRDRCCNTIGSYYCRCQAGQKLEEDGRGCEDVDECAVVNGGCQQRCINTLGTFHCECDTGYRRHADERTCIRIELEIVNICEKNNGGCSHHCEPAIGGAHCSCNHGHQLDTDGKTCIALDEQLEEEEEEIDILRFPGRLAQNPPQPFPYLDPSLTASYEDEDNDDADSEAEGEVQGLTALYRVVCLDGTFGLDCSLSCEDCMNGGRCQEGKSGCLCPAEWTGLICNESSVLRTGEDQQAPAGCLKGFFGKNCKRKCHCANNVHCHRVYGACMCDLGRYGRFCHLSCPRGAYGASCSLECQCVEENTLECSAKNGSCTCKSGYQGNRCQEGTIR	failed
MVQMNNFLFDAQNIATPLMLVDLDDTLFQTHRRIVPQTDFKMVTTDKQGQALAYMNPIQQHFVQWLLHSTHLIPVTARSAEALSRVHLPFQYGAVCSHGGTVLNPDFSVNVDWHVQMQQALTSYQERQQILIDALQQQAINFGSIRTWVVEEQGLGLYIVAKQNTENDNPYAPNFLPELLNSLSSEVLEGFYFHLNGNNLALIPQPVSKANAARFVLQQFASQQRPILGFGDSLSDVEFLNLCHWWGMPNHSQLNRWVKHNLTQQYKQEGFYGDYQ	failed
MDKENEYNKMCEEHDKYFKNLFKNLNRKIEYTFACEKENTYDDSVSNSIYTNSNQNEDNISYNNNNINNDNISSSSISKNSNNTKNSSFNETKNINDDKIKYDDKNVYDDKNINDDKNIYDDKYLYDDKNINHDKYSYDDKNINDDKYLYDDKNLYDGNNIYEENNYNNNNTNGHQMKSPTYHMKNSVQNITIYTSINKNDISKDINKINEKNTANINTSHIYQIKNDENNNNIYNNVEHIKSLCESYKNYDNDHLLYYKKHSHSKEDIHNYPIFNNAKTSQLENSNNDFLNIMNNNIKNNISEMESSKKKKKSNLLITNEIEDKLSNIQINHTNKINENNTIQYGQKTKGNKIGNHKTNIKEKLNDLIENIHLKNNKIENMNNMDDMNDMDNMNNMDDMDNTDNMNNRGNMNNRDNINNRDNMNNSNNMDNKDNMNNKDNINNKDNMNNKDNINNKDNINNLNCIDNMKHDKLQKDHLETPPIHKSPITRKSKNNIMDILNNKMNITSLENVDTSTPKYVKYNTIHREIMNPRQHFFNQNKSSIDHIICL	failed
MAGATDQRRQEVLRAIVADYIASQEPVGSKALLERHNLKVSSATIRNDMAVLESEGYIVQQHASSGRIPTEKAYRTFVDSINDIKPLSVAERRAILGFLERGVDLEDVLKRSVQLLSQLTRQAAVIQLPNLNVSRVKHCE	failed
MGESVRTLSYGSWPSPVDAALAAAHDGRPDDVGFVGDEVWWTAPRPTEGGRRTLVRRHADGTEEPVLPAPWNVRSRVIEYGGRPWGAATTDSGPLVVFVNFADQRLYAFTPGGGEPRPLTPLSAVGGGLRWIEPDPRPERGEVWCVLEEFTGEGPTDVRRVPVAVPLDGSAADDRGAVRELAPERHRFVTGPRLSPDGRRAAWLAWDHPRMPWDGTELIVAEVGPEGTFQAARTVAGGPEESIAQADWAPDGTLLYASDRTGWWNLYRDGRPLCPREEEFGGPLWKLGQRWFAPLDSGLIAVLHGRGAAVLGILDPETGEVVDAAGPWTEFAPALAAHGERVAAVGASPRSGYEVVELDARTGRARVIGAPHEDATDPEFYPRPRIRTFTGPGGREIHAHVYPPHHPGCRAPDGELPPYVIWAHGGPTSRSPLVLDLEIAYFTSRGIGVAEVNYGGSSGHGREYRNRLREQWGVVDVEDCAAVALALADEGTADRARLAVRGGSAGGWTSAASLATTDVYACGTISYPILDLTGWGTGETHDFESQYLESLIGPYAEVPDRYTDRSPAEHAERVTAPFLLLQGLDDVICPPVQCERFLDRMAGRGVPHAYLAFEGEGHGFRRAETMVRALEAELSLYAQVFGLTPPGVPVLELTR	failed
MKKKILIPVFASVMALSVSSIVNADEVNDSSQNKDDKTNTELNLGEYKEVKYKVAKIKDGVAIKIREEGQVQNIAYSGDEFTVLGTQGEWVKVKVEDGEGWLATRYVDISEGVGYTNADKVNLRKDKSESSEVIEELEKGSSLLVLEDNGDWLKVKDGETEGYVKSSYISDKAPVIEEPQVNPSIDQNVDSTNNNQQNNANTNQQNNNSNVPTANSNAVQAVLNLAYSKQGCPYVWGAEGPNTFDCSGFTQYVYRNAVGKNIPRTSKAQSKYGQTVSKANLQPGDLVFFTTNGSGSVSHVGIYVGGGNMIHSPSTGKTVSVTSINSSYYTARFVTAKRIL	failed
MTKFNWHESAEKKWDSSAEFWNQNSQEMWDSGSRSTIIPFFEQYVKKEAQVLDVGCGDGYGTYKLSRAGYKAVGVDISEVMIQKGKERGEGPDLSFIKGDLSSLPFENEQFEAIMAINSLEWTEEPLRALNEIKRVLKSDGYACIAILGPTAKPRENSYPRLYGKDVVCNTMMPWEFEQLVKEQGFKVVDGIGVYKRGVNEKMLGQLSTELQQSLTFLWVFMLKKHKEMKEFLGGK	failed
MSLIPKFREFDRERHRTDYQKGMSYAEQQDFDMGFTIWFDHIEDLDLIEKDGTINRIVMMSTGLKDKNVKEIYESDIVRNLYGELYVVEWLDGSFVLTEFYNGGYDHYIIDSSTEYEVLGNIYENPELLEDDNHASNEGHHHHHH	not failed
